Experimental data from US20230340054A1 (published 2023).

What was measured:
[1] = biological target: F906-(G2S1)4-IL2-(G2S1)6-HLE (IL2wt); assay: BLI
[2] = biological target: F906-(G2S1)4-IL2(E62A)-(G2S1)6-HLE (IL-2mut); assay: BLI

B1: CD122 (receptor)
chain: AVNGTSQFTCFYNSRANISCVWSQDGALQDTSCQVHAWPDRRRWNQTCELLPVSQASWACNLILGAPDSQKLTTVDIVTLRVLCREGVRWRVMAIQDFKPFENLRLMAPISLQVVHVETHRCNISWEISQASHYFERHLEFEARTLSPGHTWEEAPLLTLKQKQEWICLETLTPDTQYEFQVRVKPLQGEFTTWSPWSQPLAFRTKPAALGKD
modifications: biotinylated (site not stated)
Question: With B1 as the binder, how does the Kd [1] read?
Answer: ~0.04 µM

Question: What about the Kd [2] of the same binder?
Answer: ~0.04 µM
